Measured values published in patent US20220062341A1 (KIRIN, published 2022).

These binders were tested against CD3 subunits (CD3E, CD3G, CD3D, CD3Z) (human, UniProt P07766 23-207; P09693 23-182; P04234 22-171; P20963 22-164) (assay: cell-based or functional assay).
Chain of CD3 subunits (CD3E, CD3G, CD3D, CD3Z) (P07766 23-207, chain 1 of 4): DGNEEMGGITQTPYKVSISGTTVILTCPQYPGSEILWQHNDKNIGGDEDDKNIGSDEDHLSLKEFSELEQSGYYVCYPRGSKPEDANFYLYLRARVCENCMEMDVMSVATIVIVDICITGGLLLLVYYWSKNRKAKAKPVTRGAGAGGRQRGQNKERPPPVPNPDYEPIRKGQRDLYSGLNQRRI
Chain of CD3 subunits (CD3E, CD3G, CD3D, CD3Z) (P09693 23-182, chain 2 of 4): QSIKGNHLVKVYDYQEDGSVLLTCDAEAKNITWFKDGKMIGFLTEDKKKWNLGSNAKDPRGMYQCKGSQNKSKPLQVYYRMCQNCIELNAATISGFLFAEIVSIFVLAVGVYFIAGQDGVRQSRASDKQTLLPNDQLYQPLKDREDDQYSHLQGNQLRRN
Chain of CD3 subunits (CD3E, CD3G, CD3D, CD3Z) (P04234 22-171, chain 3 of 4): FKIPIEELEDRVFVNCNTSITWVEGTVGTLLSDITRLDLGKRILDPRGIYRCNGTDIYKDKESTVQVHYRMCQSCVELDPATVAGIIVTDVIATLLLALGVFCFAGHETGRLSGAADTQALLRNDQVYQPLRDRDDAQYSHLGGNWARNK
Chain of CD3 subunits (CD3E, CD3G, CD3D, CD3Z) (P20963 22-164, chain 4 of 4): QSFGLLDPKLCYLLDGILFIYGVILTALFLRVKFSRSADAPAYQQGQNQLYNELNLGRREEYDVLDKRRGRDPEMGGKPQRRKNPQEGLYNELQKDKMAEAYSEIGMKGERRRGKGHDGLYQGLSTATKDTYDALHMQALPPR

Binder | CD3-recruiting activity (CD3-positive proportion, N=3), CD3-stably expressing 293T cells [%]
modified TCR consisting of β12 and α3 (TCR) TCR alpha: NVSQSKDSDVYITDKTVLDMRSMDFKSNSAVAWSNKSDFACANAFNNSIIPEDTFFPSPESSCDVKLVEKSFETDTNLNFQNLSVIGFRILLLKVAGFNLLMTLRLWSS TCR beta: AKPVTQIVSAEAWGRADCGFTSESYQQGVLSATILYEILLGKATLYAVLVSALVLMAMVKRKDSRG | ≥ 20
modified TCR consisting of β11 and α10 (TCR) TCR alpha: IPEDTFFPSPESSCDVKLVEKSFETDTNLNFQNLSVIGFRILLLKVAGFNLLMTLRLWSS TCR beta: EWTQDRAKPVTQIVSAEAWGRADCGFTSESYQQGVLSATILYEILLGKATLYAVLVSALVLMAMVKRKDSRG | ≥ 20

More lines, now with the values ahead:

CD3-recruiting activity (CD3-positive proportion, N=3), CD3-stably expressing 293T cells [%] | Binder
≥ 20 | modified TCR consisting of β12 and α5 (TCR) TCR alpha: LDMRSMDFKSNSAVAWSNKSDFACANAFNNSIIPEDTFFPSPESSCDVKLVEKSFETDTNLNFQNLSVIGFRILLLKVAGFNLLMTLRLWSS TCR beta: AKPVTQIVSAEAWGRADCGFTSESYQQGVLSATILYEILLGKATLYAVLVSALVLMAMVKRKDSRG
≥ 20 | modified TCR consisting of β12 and α4 (TCR) TCR alpha: DVYITDKTVLDMRSMDFKSNSAVAWSNKSDFACANAFNNSIIPEDTFFPSPESSCDVKLVEKSFETDTNLNFQNLSVIGFRILLLKVAGFNLLMTLRLWSS TCR beta: AKPVTQIVSAEAWGRADCGFTSESYQQGVLSATILYEILLGKATLYAVLVSALVLMAMVKRKDSRG
≥ 20 | modified TCR consisting of β12 and α8 (TCR) TCR alpha: CANAFNNSIIPEDTFFPSPESSCDVKLVEKSFETDTNLNFQNLSVIGFRILLLKVAGFNLLMTLRLWSS TCR beta: AKPVTQIVSAEAWGRADCGFTSESYQQGVLSATILYEILLGKATLYAVLVSALVLMAMVKRKDSRG
≥ 20 | modified TCR consisting of β12 and α6 (TCR) TCR alpha: KSNSAVAWSNKSDFACANAFNNSIIPEDTFFPSPESSCDVKLVEKSFETDTNLNFQNLSVIGFRILLLKVAGFNLLMTLRLWSS TCR beta: AKPVTQIVSAEAWGRADCGFTSESYQQGVLSATILYEILLGKATLYAVLVSALVLMAMVKRKDSRG
≥ 20 | modified TCR consisting of β12 and α7 (TCR) TCR alpha: SNKSDFACANAFNNSIIPEDTFFPSPESSCDVKLVEKSFETDTNLNFQNLSVIGFRILLLKVAGFNLLMTLRLWSS TCR beta: AKPVTQIVSAEAWGRADCGFTSESYQQGVLSATILYEILLGKATLYAVLVSALVLMAMVKRKDSRG
≥ 20 | modified TCR consisting of β12 and α9 (TCR) TCR alpha: FNNSIIPEDTFFPSPESSCDVKLVEKSFETDTNLNFQNLSVIGFRILLLKVAGFNLLMTLRLWSS TCR beta: AKPVTQIVSAEAWGRADCGFTSESYQQGVLSATILYEILLGKATLYAVLVSALVLMAMVKRKDSRG
≥ 20 | modified TCR consisting of β12 and α10 (TCR) TCR alpha: IPEDTFFPSPESSCDVKLVEKSFETDTNLNFQNLSVIGFRILLLKVAGFNLLMTLRLWSS TCR beta: AKPVTQIVSAEAWGRADCGFTSESYQQGVLSATILYEILLGKATLYAVLVSALVLMAMVKRKDSRG

What follows are binders tested against CD3E (human, UniProt P07766 23-207) (assay: cell-based or functional assay).
Chain of CD3E (P07766 23-207): as the sequence (P07766 23-207, chain 1 of 4) above

CD3E-positive proportion [%] (Avg, n = 2), CD3-stably expressing 293T cells | Binder
70.7 | modified TCR ba16 (TCR) TCR alpha: DVYITDKTVLDMRSMDFKSNSAVAWSNKSDFACANAFNNSIIPEDTFFPSPESSCDVKLVEKSFETDTNLNFQNLSVIGFRILLLKVAGFNLLMTLRLWSS TCR beta: AKPVTQIVSAEAWGRADCGFTSESYQQGVLSATILYEILLGKATLYAVLVSALVLMAMVKRKDSRG
81.9 | modified TCR ba17 (TCR) TCR alpha: KSNSAVAWSNKSDFACANAFNNSIIPEDTFFPSPESSCDVKLVEKSFETDTNLNFQNLSVIGFRILLLKVAGFNLLMTLRLWSS TCR beta: AKPVTQIVSAEAWGRADCGFTSESYQQGVLSATILYEILLGKATLYAVLVSALVLMAMVKRKDSRG
86.5 | modified TCR ba10 (TCR) TCR alpha: IPEDTFFPSPESSCDVKLVEKSFETDTNLNFQNLSVIGFRILLLKVAGFNLLMTLRLWSS TCR beta: EDLKNVFPPEVAVFEPSEAEISHTQKATLVCLATGFYPDHVELSWWVNGKEVHSGVSTDPQPLKEQPALNDSRYCLSSRLRVSATFWQNPRNHFRCQVQFYGLSENDEWTQDRAKPVTQIVSAEAWGRADCGFTSESYQQGVLSATILYEILLGKATLYAVLVSALVLMAMVKRKDSRG
89.5 | modified TCR ba18 (TCR) TCR alpha: IPEDTFFPSPESSCDVKLVEKSFETDTNLNFQNLSVIGFRILLLKVAGFNLLMTLRLWSS TCR beta: AKPVTQIVSAEAWGRADCGFTSESYQQGVLSATILYEILLGKATLYAVLVSALVLMAMVKRKDSRG
46.4 | modified TCR ba14 (TCR) TCR alpha: IPEDTFFPSPESSCDVKLVEKSFETDTNLNFQNLSVIGFRILLLKVAGFNLLMTLRLWSS TCR beta: ATLVCLATGFYPDHVELSWWVNGKEVHSGVSTDPQPLKEQPALNDSRYCLSSRLRVSATFWQNPRNHFRCQVQFYGLSENDEWTQDRAKPVTQIVSAEAWGRADCGFTSESYQQGVLSATILYEILLGKATLYAVLVSALVLMAMVKRKDSRG
83.2 | modified TCR ba11 (TCR) TCR alpha: SVCLFTDFDSQTNVSQSKDSDVYITDKTVLDMRSMDFKSNSAVAWSNKSDFACANAFNNSIIPEDTFFPSPESSCDVKLVEKSFETDTNLNFQNLSVIGFRILLLKVAGFNLLMTLRLWSS TCR beta: ATLVCLATGFYPDHVELSWWVNGKEVHSGVSTDPQPLKEQPALNDSRYCLSSRLRVSATFWQNPRNHFRCQVQFYGLSENDEWTQDRAKPVTQIVSAEAWGRADCGFTSESYQQGVLSATILYEILLGKATLYAVLVSALVLMAMVKRKDSRG
40.4 | modified TCR ba13 (TCR) TCR alpha: KSNSAVAWSNKSDFACANAFNNSIIPEDTFFPSPESSCDVKLVEKSFETDTNLNFQNLSVIGFRILLLKVAGFNLLMTLRLWSS TCR beta: ATLVCLATGFYPDHVELSWWVNGKEVHSGVSTDPQPLKEQPALNDSRYCLSSRLRVSATFWQNPRNHFRCQVQFYGLSENDEWTQDRAKPVTQIVSAEAWGRADCGFTSESYQQGVLSATILYEILLGKATLYAVLVSALVLMAMVKRKDSRG
56.5 | modified TCR ba15 (TCR) TCR alpha: SVCLFTDFDSQTNVSQSKDSDVYITDKTVLDMRSMDFKSNSAVAWSNKSDFACANAFNNSIIPEDTFFPSPESSCDVKLVEKSFETDTNLNFQNLSVIGFRILLLKVAGFNLLMTLRLWSS TCR beta: AKPVTQIVSAEAWGRADCGFTSESYQQGVLSATILYEILLGKATLYAVLVSALVLMAMVKRKDSRG
51 | modified TCR ba12 (TCR) TCR alpha: DVYITDKTVLDMRSMDFKSNSAVAWSNKSDFACANAFNNSIIPEDTFFPSPESSCDVKLVEKSFETDTNLNFQNLSVIGFRILLLKVAGFNLLMTLRLWSS TCR beta: ATLVCLATGFYPDHVELSWWVNGKEVHSGVSTDPQPLKEQPALNDSRYCLSSRLRVSATFWQNPRNHFRCQVQFYGLSENDEWTQDRAKPVTQIVSAEAWGRADCGFTSESYQQGVLSATILYEILLGKATLYAVLVSALVLMAMVKRKDSRG
